Columns and labels:
[1] = test system: human AML cells (CD45+/CD33+); assay: M5 AML patient-derived xenograft in NSG mice (primary transplantation); type: in vivo, mouse
Source text: (FIG. 8A) Upper: Schematic of treatment. NSG mice were transplanted with monocytic AML patient peripheral blood sample (depleted red blood cells) and given IgG or #1NA. […] (FIG. 8C) The percentages of human T cells in NSG mice treated as indicated in panel a (n=8 independent mice). (FIG. 8D) Overall survival of the NSG mice treated as indicated in panel a (n=8 independent mice). (FIG. 8E) Schematic of treatment. NSG mice were transplanted with monocytic AML cells (derived from BM of NSG mice engrafted with monocytic AML patient peripheral blood samples) with treatment of IgG or anti-LILRB3 #1 LALAPG. (FIG. 8F) Flow cytometry analyses of LILRB3 expression on human AML cells in the mouse bone marrow. (FIG. 8G) The percentages of human AML cells (CD45^+/CD33^+) in NSG mice after treatment of IgG or #1NA as indicated in panel e. (n=5 independent mice). (FIG. 8H) The percentages of human T cells in NSG mice treated as indicated in panel e (n=5 independent mice). (FIG. 8I), Survival of NSG mice treated as indicated in panel e (n=5 independent mice). The data are presented as mean s.e.m, and p values were calculated by two-tailed t-test except for d and i by log-rank test.
Primary human leukemia. The primary human AML samples was obtained from the University of Texas Southwestern Medical Center. […] For primary transplantation, leukemia cells isolated from donor peripheral blood was injected into irradiated NSG mice (200 cGy), and antibody or IgG was introduced intravenously 8 days after injection. For secondary transplantation, human leukemia cells from frozen BM of NSG mice that were engrafted with patient AML cells were transplanted into sublethally-irradiated NSG recipients.

MLL-AF9 AML cells = assay: CFU assay of mouse MLL-AF9 AML cells; type: cell-based
Source text: FIGS. 7A-N. Blocking anti-LILRB3 antibody prevents monocytic AML development. (FIG. 7A) Epitope binning of 30 high-affinity IgGs. (FIG. 7B) CFU assay of mouse MLL-AF9 AML cells in the presence of above IgGs (n=3 independent experiments). (FIG. 7C) Binding affinities of the two IgGs from bin #3. (FIG. 7D) Upper: Schematic of treatment. Lower: Percentages of GFP^+ MLL-AF9 mouse AIL cells in peripheral blood (PB), bone marrow (BM), spleen (SPL), and liver (LV) of mice transplanted with AML cells expressing B3-FL or B3delICD and injected with IgG or anti-LILRB3 #1 N297A (n=3 independent mice). (FIG. 7E) Overall survival of mice transplanted with indicated AML cells as above. (FIG. 7F) CFU assay of MLL-AF9 mouse AML cells expressing B3-FL or B3delICD in the presence of IgG or anti-LILRB3 #1 N297A (n=3 independent experiments) (FIG. 7G) Upper: Schematic of treatment. Recipient mice were injected with mouse IgG or anti-mCD8 to deplete CD8 T cells. Lower: Percentages of GFP^+ MLL-AF9 mouse AML cells in peripheral blood (PB), bone marrow (BM), spleen (SPL), and liver (LV) of mice transplanted with AML cells expressing B3-FL or B3delICD and injected with IgG or anti-LILRB3 #1 LALAPG (n=4 mice). (FIG. 7H) Survival of mice as in panel h (n=4 independent mice). (FIG. 7I) Upper: Schematic of treatment. Lower: Whole-body images of NSG mice transplanted with luciferase-expressing THP-1 cells and treated with IgG or anti-LILRB3 #1 N297A (#1NA). (FIG. 7J) Overall survival of the mice shown in panel h (n=3 independent mice). (FIG. 7K) Upper: Schematic of treatment. Lower: Whole-body images of NSG mice transplanted with luciferase-expressing Molm13 cells, injected with activated T cells, and treated with IgG or #1NA. (FIG. 7L) Luciferase signaling as a function of time in mice treated as described in panel k. (FIG. 7M) Overall survival of mice treated as described in panel k (n=3 independent mice). (FIG. 7N) Analyses of T cells in peripheral blood of mice treated as described in panel 1 at 22 days after Molm13 AML cell transplantation. Upper: Flow cytometry analyses. Lower: Plot of T cell percentages (n=3 independent mice). The data are presented as mean±s.e.m, and p values were calculated by two-tailed t-test except for FIG. 7E, FIG. 7H, FIG. 7J and FIG. 7M by log-rank test.
FIGS. S6A-J. Development of anti-LILRB3 blocking antibodies for suppressing AML development. (FIG. S6a) Upper: Flow chart of strategy for development of fully humanized antibodies against LILRB3. Lower: The identified antibodies were tested in the LILRB3 chimeric receptor reporter cell assay. (FIG. S6b) ELISA results for LILRB3 binders. (FIG. S6c) EC50 values of the anti-LILRB3 antibodies based on ELISA. (FIG. S6d) Affinities of antibodies #32, #33, #67, and #45 to LILRB3 as determined by Octet. (FIG. S6e) Cross-reactivity of the anti-LILRB3 antibodies with LILRAs evaluated with LILRA binding analyses. (FIG. S6f) Cross-reactivity of the anti-LILRB3 antibodies with other LILRBs evaluated with LILRB binding analyses. (FIG. S6g) Interaction with TRAF2 contributes to the effect of LILRB3 on AML development. […] (FIG. S6j) NF-κB signaling target gene expression (measured by qPCR) in THP-1 cells from BM of xenografted NSG mice treated with anti-LILRB3 #1NA or IgG (n=3 individual samples). […]

B1: anti-LILRB3 #1 N297A: IgG #1 with Fc glycosylation N297A mutation, defective Fc-mediated effector functions (antibody, V domains shown)
VH: EVQLVESGGGVVQPGRSLRLSCAASGFTFSSYGMHWVRQAPGKGLEWVAFIRYDGSNKYYADSVKGRFTISRDNSKNTLYLQMNSLRAEDTAVYYCAKAGFSGWYYYGMDVWGQGTMVTVSS
VL: DIVMTQSPSSLSASVGDRLTITCRASQSISTYLNWYQQKPGKAPKLLIYGASSLQSGVPSRFSGSGSGTDFTLTISSLQPEDFATYFCQQSYGLPLTFGGGTKVDIK
[1]; NSG mice
  percentages of human autologous T cells: increased the percentages of human autologous T cells
[1]; versus IgG
  AML burden in peripheral blood, bone marrow, spleen, and liver: significantly lower AML burden
[1]; versus control IgG
  survival: significant survival advantage
MLL-AF9 AML cells; AAA mutant (QEE509-511AAA)
  CFU formation of AML cells expressing mutant LILRB3 that cannot interact with TRAF2: did not decrease CFU formation
MLL-AF9 AML cells; versus IgG
  CFU formation by B3-FL AML cells: decreased CFU formation

— patent US20240101667A1, “METHODS FOR IDENTIFYING LILRB-BLOCKING ANTIBODIES” (THE BOARD OF REGENTS OF THE UNIVERSITY OF TEXAS SYSTEM, priority 2020, published 2024)
